We go through 24 molecules from patent US20090098570A1 (Daiichi Sankyo, published 2009).

No end group written: not given here. *: point of attachment. Biotin = O=C1N[C@H]2[C@H](CS[C@H]2CCCCC(=O)*)N1

Test [1] has as its target T1, His-LXRα/FLAG-RXRα heterodimer (ligand binding domains of human LXRα and human RXRα) (human, UniProt Q13133 164-447; P19793 201-462).
T1 construct: Co-expressed in E. coli BL21(DE3) from pET15b-LXRα/FLAG-RXRα and purified together on Ni2+ resin; also called His-LXRα and FLAG-RXRα; heterodimer comprising LXRα and RXRα
T1 sequence 1: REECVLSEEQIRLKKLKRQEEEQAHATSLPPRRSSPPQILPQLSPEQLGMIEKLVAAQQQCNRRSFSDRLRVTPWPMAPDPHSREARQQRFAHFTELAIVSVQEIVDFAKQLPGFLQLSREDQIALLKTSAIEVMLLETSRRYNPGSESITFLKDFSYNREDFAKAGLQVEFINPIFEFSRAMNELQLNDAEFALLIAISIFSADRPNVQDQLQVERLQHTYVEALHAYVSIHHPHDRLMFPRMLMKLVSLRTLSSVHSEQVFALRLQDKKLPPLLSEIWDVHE
T1 sequence 2: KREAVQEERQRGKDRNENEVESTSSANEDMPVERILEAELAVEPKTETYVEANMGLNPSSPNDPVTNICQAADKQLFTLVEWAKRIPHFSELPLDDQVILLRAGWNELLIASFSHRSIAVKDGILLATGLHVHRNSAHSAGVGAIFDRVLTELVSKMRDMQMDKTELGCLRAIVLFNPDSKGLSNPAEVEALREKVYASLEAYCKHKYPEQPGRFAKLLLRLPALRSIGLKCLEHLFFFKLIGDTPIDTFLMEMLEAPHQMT
Nature of the test: FRET (665/620 nm), anti-His tag antibody + streptavidin, biotinylated peptide; with Compound B, relative to DMSO-only control.

Test [2] addresses T2, His-LXRβ/FLAG-RXRα heterodimer (ligand binding domains of human LXRβ and human RXRα) (human, UniProt P55055 155-460; P19793 201-462, limits assumed).
T2 construct: Co-expressed in E. coli BL21(DE3) from pET15b-LXRβ/FLAG-RXRα and purified together on Ni2+ resin; also called His-LXRβ and FLAG-RXRα; heterodimer comprising LXRβ and RXRα
T2 sequence 1: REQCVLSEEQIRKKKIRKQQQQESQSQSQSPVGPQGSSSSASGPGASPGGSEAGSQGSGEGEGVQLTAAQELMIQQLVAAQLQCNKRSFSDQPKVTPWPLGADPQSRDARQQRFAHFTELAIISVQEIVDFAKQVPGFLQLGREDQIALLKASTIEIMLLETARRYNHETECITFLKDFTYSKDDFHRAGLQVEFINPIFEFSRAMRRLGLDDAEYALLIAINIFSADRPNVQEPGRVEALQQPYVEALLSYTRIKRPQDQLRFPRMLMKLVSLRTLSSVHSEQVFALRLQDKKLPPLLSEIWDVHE
T2 sequence 2: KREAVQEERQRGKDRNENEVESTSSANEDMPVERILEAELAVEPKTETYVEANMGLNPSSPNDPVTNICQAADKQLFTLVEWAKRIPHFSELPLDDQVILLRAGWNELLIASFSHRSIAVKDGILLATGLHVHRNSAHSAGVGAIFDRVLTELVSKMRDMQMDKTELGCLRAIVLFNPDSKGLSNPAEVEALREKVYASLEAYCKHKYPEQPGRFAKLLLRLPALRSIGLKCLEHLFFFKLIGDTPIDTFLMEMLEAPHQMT
Described as above.

The target in test [3] is T1, His-LXRα/FLAG-RXRα heterodimer (ligand …). Nature of the test: FRET (665/620 nm), anti-His tag antibody + streptavidin, biotinylated peptide; with Compound A, relative to DMSO-only control.
Test [4] addresses T2, His-LXRβ/FLAG-RXRα heterodimer (ligand …). The description is as above.
For test [5], the target named is T3, His-LXRβ/FLAG-RXRα heterodimer (ligand binding domains of human LXRβ and human RXRα) (human) (UniProt P55055).
T3 sequence 1: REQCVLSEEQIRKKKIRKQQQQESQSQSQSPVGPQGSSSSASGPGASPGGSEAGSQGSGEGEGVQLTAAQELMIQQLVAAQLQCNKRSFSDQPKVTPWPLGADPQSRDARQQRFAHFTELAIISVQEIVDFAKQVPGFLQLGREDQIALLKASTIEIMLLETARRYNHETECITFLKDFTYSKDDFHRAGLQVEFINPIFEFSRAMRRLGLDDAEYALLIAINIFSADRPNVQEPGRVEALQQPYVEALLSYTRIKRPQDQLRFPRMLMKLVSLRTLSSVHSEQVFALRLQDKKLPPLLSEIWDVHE
T3 sequence 2: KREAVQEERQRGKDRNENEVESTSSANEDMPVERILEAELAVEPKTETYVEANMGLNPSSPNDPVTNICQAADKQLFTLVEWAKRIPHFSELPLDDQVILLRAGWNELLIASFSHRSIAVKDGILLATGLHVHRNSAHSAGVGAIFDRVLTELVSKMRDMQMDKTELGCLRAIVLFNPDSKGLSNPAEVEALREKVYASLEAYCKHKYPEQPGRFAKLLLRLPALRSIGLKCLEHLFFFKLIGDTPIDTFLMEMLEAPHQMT
Description: FRET (665/620 nm), anti-His tag antibody + streptavidin, biotinylated peptide; with Compound B, relative to DMSO-only control.

In test [6] the target is T3, His-LXRβ/FLAG-RXRα heterodimer (ligand binding domains of human LXRβ and human RXRα) (human). Description: FRET (665/620 nm), anti-His tag antibody + streptavidin, biotinylated peptide; with Compound A, relative to DMSO-only control.
Test [7] addresses T1, His-LXRα/FLAG-RXRα heterodimer (ligand …). The description is as above. Here is the method: (§1) Next, 10 μl of peptide reaction solution (1.00 μl of 5 μM peptide, 1.00 μl of 10× PBS, 2.50 μl of 2 M KF, 0.10 μl of 10% NP40, 0.20 μl of streptavidin (CIS Bio International) and 5.20 μl of H₂O) were added to each well of the 384-well assay plate and incubated for 17 hours at 4° C. The peptide added here was comprising of any of the amino acid sequences of (a) to (g) below, and the amino acid of the N-terminal was biotinylated.
(§2) The value obtained by multiplying 1000 by the value resulting from dividing the measured value at 665 nm when applying excitation light at 337 nm by the measured value at 620 nm was determined. This value was then divided by the value determined by the same method when only DMSO was added without adding LXR ligand (Compound A or Compound B), and this value was then multiplied by 100 and indicated as the percentage relative to the control (% of control) as shown in Table 6.
(§3) (1) According to the same method as Example 2) (using the following peptides (h) to (m), instead of the peptides (a) to (g) in Example 2), the amount of coactivator bound to the heterodimer LXRα and RXRα were determined.
This is another data set of the same source.

The target is the same in test [8]. Description: FRET (665/620 nm), anti-His tag antibody + streptavidin, biotinylated peptide; with Compound B, relative to DMSO-only control. As for the experimental part: as §1, §2, §3
This is another data set of the same source.

B1: PGC-1α peptide DGTPPPQEAEEPSLLKKLLLAPANT (aa 130-154) (peptide)
peptide: Biotin-DGTPPPQEAEEPSLLKKLLLAPANT
In the case of B1, the “% of control” value in test [1] was 207 % of control; in test [2] it was 195 % of control; in test [3], 362 % of control; in test [4] it was 191 % of control.

B2: SRC-1-3 peptide KESKDHQLLRYLLDKDEKDL (the third LXXLL motif from the N-terminal side of SRC-1) (peptide)
peptide: Biotin-KESKDHQLLRYLLDKDEKDL
Turning to B2, the “% of control” value in test [1] was 112 % of control; in test [3] it was 181 % of control.

B3: SRC-1-3 peptide … (the third LXXLL motif from the N-terminal side of SRC-1) (peptide)
peptide: Biotin-KESKDHQLLRYLLDKDEKDL
Consider B3, for which the values for the % of control in test [5] and in test [6] were 108 % of control and 111 % of control, respectively.

B4: SRC-1-4 peptide QKPTSGPQTPQAQQKSLLQQLLTE (the fourth LXXLL motif from the N-terminal side of SRC-1) (peptide)
peptide: Biotin-QKPTSGPQTPQAQQKSLLQQLLTE
Regarding B4, the “% of control” value in test [1] was 128 % of control; in test [2], 144 % of control; in test [3], 207 % of control; in test [4] it was 155 % of control.

B5: PNRC peptide KNPTSCSRRFYQLTKLLDSVQPIAR (aa 848-872) (peptide)
peptide: Biotin-KNPTSCSRRFYQLTKLLDSVQPIAR
For B5, the figures for the “% of control” value in test [7] and in test [8] were 140 % of control and 110 % of control, respectively.

B6: PERC NRB2 peptide HSKASWAEFSILRELLAQDVLCD (aa 332-354) (peptide)
peptide: Biotin-HSKASWAEFSILRELLAQDVLCD
Take B6: the entries for the “% of control” value in test [7] and in test [8] were 127 % of control and 104 % of control, respectively.

B7: ACTR NRB3 peptide … (aa 728-753) (peptide)
peptide: Biotin-SPKKKENNALLRYLLDRDDPSDALSK
On to B7, for which the results for the % of control in test [5] and in test [6] were 103 % of control and 129 % of control, respectively.

B8: SRC-1-2 peptide CPSSHSSLTERHKILHRLLQEGSPS (the second LXXLL motif from the N-terminal side of SRC-1) (peptide)
peptide: Biotin-CPSSHSSLTERHKILHRLLQEGSPS
Turning to B8, the “% of control” value in test [1] was 182 % of control; in test [3], 267 % of control.

B9: ACTR NRB3 peptide SPKKKENNALLRYLLDRDDPSDALSK (aa 728-753) (peptide)
peptide: Biotin-SPKKKENNALLRYLLDRDDPSDALSK
As to B9, the “% of control” value was 167 % of control in test [7] and 92 % of control in test [8].

B10: DAX1 peptide … (aa 132-156) (peptide)
peptide: Biotin-CCFCGEDHPRQGSILYSLLTSSKQT
modifications: cysteine pairing not given here
Regarding B10, the % of control in test [5] is 120 % of control; in test [6], 116 % of control.

B11: ASC-2 NR-2 peptide SPAMREAPTSLSQLLDNSGAPNVTIKPPGL (LXXLL motif on the C-terminal side of ASC-2) (peptide)
peptide: Biotin-SPAMREAPTSLSQLLDNSGAPNVTIKPPGL
notes: also called ASC2 MR-2
Take B11: the results for the “% of control” value in test [1] and in test [3] were 137 % of control and 254 % of control, respectively.

B12: ASC-2 NR-1 peptide NKDVTLTSPLLVNLLQSDISAGHFGVNNKQ (LXXLL motif on the N-terminal side of ASC-2) (peptide)
peptide: Biotin-NKDVTLTSPLLVNLLQSDISAGHFGVNNKQ
As to B12, the “% of control” value in test [1] was 116 % of control; in test [3], 156 % of control.

B13: TIF2 peptide … (aa 679-703) (peptide)
peptide: Biotin-HGTSLKEKHKILHRLLQDSSSPVDL
Consider B13, for which the values for the % of control in test [5] and in test [6] were 114 % of control and 108 % of control, respectively.

B14: TRAP220 peptide GHGEDFSKVSQNPILTSLLQITGNG (aa 590-614) (peptide)
peptide: Biotin-GHGEDFSKVSQNPILTSLLQITGNG
Regarding B14, the “% of control” value in test [7] is 131 % of control; in test [8] it was 107 % of control.

B15: SRC-1-2 peptide … (the second LXXLL motif from the N-terminal side of SRC-1) (peptide)
peptide: Biotin-CPSSHSSLTERHKILHRLLQEGSPS
Regarding B15, the results for the % of control in test [5] and in test [6] were 119 % of control and 120 % of control, respectively.

B16: PERC NRB2 peptide … (aa 332-354) (peptide)
peptide: Biotin-HSKASWAEFSILRELLAQDVLCD
On to B16, for which the % of control in test [5] is 115 % of control; in test [6], 104 % of control.

B17: TRAP220 peptide … (aa 590-614) (peptide)
peptide: Biotin-GHGEDFSKVSQNPILTSLLQITGNG
Take B17: the % of control in test [5] was 116 % of control; in test [6], 111 % of control.

B18: TIF2 NRB2 peptide … (aa 731-755) (peptide)
peptide: Biotin-KQEPVSPKKKENALLRYLLDKDDTK
Consider B18, for which the % of control is 124 % of control in test [5] and 125 % of control in test [6].

B19: TIF2 peptide HGTSLKEKHKILHRLLQDSSSPVDL (aa 679-703) (peptide)
peptide: Biotin-HGTSLKEKHKILHRLLQDSSSPVDL
Take B19: the “% of control” value in test [1] was 157 % of control; in test [3], 267 % of control.

B20: ASC-2 NR-2 peptide … (LXXLL motif on the C-terminal side of ASC-2) (peptide)
peptide: Biotin-SPAMREAPTSLSQLLDNSGAPNVTIKPPGL
Take B20: the % of control in test [5] was 116 % of control; in test [6], 120 % of control.

B21: PNRC peptide … (aa 848-872) (peptide)
peptide: Biotin-KNPTSCSRRFYQLTKLLDSVQPIAR
On to B21, for which the % of control in test [5] was 107 % of control; in test [6] it was 109 % of control.

B22: ASC-2 NR-1 peptide … (LXXLL motif on the N-terminal side of ASC-2) (peptide)
peptide: Biotin-NKDVTLTSPLLVNLLQSDISAGHFGVNNKQ
As to B22, the % of control in test [5] was 115 % of control; in test [6], 114 % of control.

B23: DAX1 peptide CCFCGEDHPRQGSILYSLLTSSKQT (aa 132-156) (peptide)
peptide: Biotin-CCFCGEDHPRQGSILYSLLTSSKQT
modifications: cysteine pairing not given here
For B23, the results for the “% of control” value in test [7] and in test [8] were 158 % of control and 107 % of control, respectively.

B24: TIF2 NRB2 peptide KQEPVSPKKKENALLRYLLDKDDTK (aa 731-755) (peptide)
peptide: Biotin-KQEPVSPKKKENALLRYLLDKDDTK
B24: the “% of control” value in test [7] was 268 % of control; in test [8] it was 127 % of control.
